Data on three molecules can be found in patent US8088617B2, “Antibodies that bind the glutamate ligand binding region of Notch1” (OncoMed Pharmaceuticals, Inc., priority 2007, dated 2012).

“Also recorded” adds a separate entry of the source.

Test [1] deals with Notch signaling (ICD formation) in Hela cells stably expressing Notch1. The test is described as follows: Western blot of Notch ICD formation in response to DLL4. Conditions: 10 ug/ml soluble DLL4-Fc; western blot of cell lysates. In kind it is cell-based. The text has this:
FIG. 8: Monoclonal Antibodies to the Notch Ligand Binding Domain Inhibit Notch Signaling. A) A schematic of the Notch signaling mechanism. Upon ligand binding, gamma secretase activity cleaves the Notch receptor and liberates the intracellular domain (ICD) to activate downstream Notch signaling. B) Monoclonal antibodies against the Notch ligand binding domain inhibit Notch signaling in response to Notch ligand DLL4.
In certain embodiments, the ability of antibodies against a Notch ligand binding region to block Notch signaling was measured by inhibition of Notch cleavage in response to ligand stimulation. Hela cells stably expressing Notch1 were cultured in DMEM supplemented with antibiotics and 10% FCS. Cells were then incubated in the presence of 10 ug/ml soluble DLL4-Fc protein in the presence or absence of monoclonal antibodies against a Notch ligand binding domain, control antibodies, antibodies against Notch1 binding outside the ligand binding region (13M57), and gamma secretase inhibitor DBZ. Cells were harvested and cell lysates analyzed by western blot using an antibody that recognizes the cleaved intracellular domain (ICD) of Notch generated in response to ligand induced signaling (FIG. 8A).

The test system of another test is PE13 breast tumor cells. Briefly: PE13 breast tumor xenograft growth. The class given is in vivo, NOD/SCID mice. The protocol:
(§1) FIG. 9: Monoclonal Antibodies to the Notch Ligand Binding Domain Inhibit Tumor Growth In Vivo. NOD/SCID mice were injected with dissociated PE13 (A) or T3 (B) breast tumor cells and treated with either control antibodies (black squares); anti-Notch ligand binding region antibodies 90R21 (open circles); control antibodies in combination with Paclitaxel (black triangles); or 90R21 antibodies in combination with Paclitaxel (open triangles).
(§2) In certain embodiments, tumor cells from a patient sample (solid tumor biopsy or pleural effusion) that have been passaged as a xenograft in mice were prepared for repassaging into experimental animals. Tumor tissue was removed under sterile conditions, cut up into small pieces, minced completely using sterile blades, and single cell suspensions obtained by enzymatic digestion and mechanical disruption. Specifically, pleural effusion cells or the resulting tumor pieces were mixed with ultra-pure collagenase III in culture medium (200-250 units of collagenase per mL) and incubated at 37° C. for 3-4 hours with pipetting up and down through a 10-mL pipette every 15-20 minutes. Digested cells were filtered through a […] nylon mesh, washed with RPMI/20% FBS, and washed twice with HBSS. […]
(§3) In certain embodiments, anti-Notch ligand binding region antibodies were analyzed for their ability to reduce the growth of breast tumors in vivo. […]

For a further test, the system named is T3 breast tumor cells. The test is described as follows: T3 breast tumor xenograft growth. In kind it is in vivo, NOD/SCID mice. To be noted: estrogen pellet. How it is done: as §1, §2, §3
The target of the next test is T1, human Notch1 (Homo sapiens, UniProt P46531).
T1 construct: expressed in transfected cells
The test is described as follows: FACS: inhibition of DLL4 binding to Notch1 on stably transfected HEK293 cells. To be noted: soluble DLL4-fc, increasing concentrations of antibody. The protocol: FIG. 6: Affinity Matured mAbs that Bind the Ligand Binding Domain of Notch1 Inhibit Binding of DLL4 to Notch1. […] Three affinity matured variants were tested for their ability to block binding between DLL4 and Notch1 (y-axis) in the presence of increasing concentrations of antibody (x-axis).
The ability of antibodies specific for the critical ligand binding region to inhibit binding of Notch ligands to Notch was evaluated. In certain embodiments, the ability of a panel of affinity matured monoclonal antibodies specific for the Notch1 ligand binding region to inhibit binding of DLL4 to Notch1 was determined by FACS analysis (FIG. 6). HEK293 cells stably transfected with human Notch1 were incubated with soluble DLL4-fc fusion protein in the presence of increasing concentrations of 90R21, 90R22, and 90R29 antibodies. […] HEK293 cells co-transfected with GFP and full length Notch3 were incubated with a soluble human Jag1-fc fusion protein in the absence (No Ab) or presence (122R03E1) of the fAb.
(In general: In flow cytometry, cells or beads pass a laser one at a time.)

The target of test [2] is T2, wild type full length Notch1 (Homo sapiens, UniProt P46531).
T2 construct: co-transfected with GFP and either wild type full length Notch1; expressed in transfected cells; host or cells: HEK293
Briefly: FACS binding to HEK293 cells co-transfected with GFP and wild type Notch1. To be noted: HEK293 cells co-transfected with GFP. The text has this: (§4) FIG. 4: Identification of a fAb that Binds a Critical Ligand Binding Domain of Notch1. FACS analysis of HEK 293 cells co-transfected with GFP and either wild type Notch or Notch1 E424Q using a human fAb identified by phage display as binding the ligand binding domain of Notch1. GFP expression marked cells expressing recombinant Notch1 protein (x-axis) and binding to Notch1 is indicated along the y-axis.
(§5) FIG. 5: Identification of an Antibody that Binds the Ligand Binding Region of Multiple Notch Receptors. FACS analysis of HEK 293 cells co-transfected with GFP and wild type Notch3, Notch1 or Notch1 E424Q using a human fAb identified by phage display as binding the ligand binding domain of Notch3. GFP expression marked transfected cells expressing recombinant Notch protein (x-axis). Binding of fAb is indicated on the y-axis.
(§6) To confirm that the lead Notch1 fAb was specific for the ligand binding region of Notch1, HEK293 cells were co-transfected with GFP and either wild type full length Notch1 or Notch1 containing the amino acid substitution E424Q.

The target of a further test is murine Notch3 (Mus musculus, UniProt Q61982). Briefly: fAb binding to murine Notch3 (phage display selection). How it is done:
(§7) In certain embodiments, phage display identified a specific fAb that binds to the ligand binding domain within Notch1. In certain embodiments, phage display identified a specific fAb that binds to the ligand binding domain within Notch3. In certain embodiments, a fAb was discovered that bound to the ligand binding domain of both Notch3 and Notch1. In certain embodiments, 2×10^13 Fab displaying phage particles from a human fAb phage library were incubated with cells expressing full length recombinant protein or passively immobilized recombinant protein fragments, non-specific phage were washed off, and then specific phage were eluted with either low pH (cells) or DTT (recombinant protein). The eluted output was used to infect TG1 F+ bacteria, rescued with helper phage, and then Fab display induced with IPTG (0.25 mM). The output of this rescued round one served as the starting point for further selections in rounds two, three, four, and five as indicated in Table 1.
(§8) For Notch3, the phage display library was panned for binding to the analogous epitope within Notch3 (comprising amino acid 403 of Notch3) using similar approach for as Notch1. […] The 122R5 heavy chain comprises the amino acids of SEQ ID NO: 9, including CDR1 (SEQ ID NO: 10); CDR2 (SEQ ID NO: 11) and CDR3 (SEQ ID NO: 12). […]

For another test, the target named is T3, Notch1 E424Q (Homo sapiens, UniProt P46531, E424Q).
T3 construct: Full-length wild type Notch1 or Notch1 E424Q was co-transfected with GFP into HEK 293 cells; expressed in transfected cells; host or cells: HEK293
The test is described as follows: FACS binding to HEK293 cells co-transfected with GFP and Notch1 E424Q. To be noted: HEK293 cells co-transfected with GFP.
Excerpt: as §4, §5, §6

For the next test, the target named is human Notch3 (Homo sapiens, UniProt Q9UM47). Briefly: fAb binding to human Notch3 (phage display selection). How it is done: as §7, §8
The next test has as its target Notch3 (E403Q) (Homo sapiens, UniProt Q9UM47, E403Q). The test is described as follows: fAb binding to Notch3 with E403Q substitution. The text has this:
For Notch3, the phage display library was panned for binding to the analogous epitope within Notch3 (comprising amino acid 403 of Notch3) using similar approach for as Notch1. […] The 122R5 heavy chain comprises the amino acids of SEQ ID NO: 9, including CDR1 (SEQ ID NO: 10); CDR2 (SEQ ID NO: 11) and CDR3 (SEQ ID NO: 12). The 122R5 light chain comprises the amino acids of SEQ ID NO: 13, including CDR1 (SEQ ID NO: 14); CDR2 (SEQ ID NO: 15) and CDR3 (SEQ ID NO: 16).

[3] abbreviates: antibody 10 mg/kg twice a week in combination with Paclitaxel 10 mg/kg once a week.
[4] abbreviates: antibody alone 10 mg/kg twice a week, vs control antibody, after 55 days.

T1 sequence (P46531 19-2555): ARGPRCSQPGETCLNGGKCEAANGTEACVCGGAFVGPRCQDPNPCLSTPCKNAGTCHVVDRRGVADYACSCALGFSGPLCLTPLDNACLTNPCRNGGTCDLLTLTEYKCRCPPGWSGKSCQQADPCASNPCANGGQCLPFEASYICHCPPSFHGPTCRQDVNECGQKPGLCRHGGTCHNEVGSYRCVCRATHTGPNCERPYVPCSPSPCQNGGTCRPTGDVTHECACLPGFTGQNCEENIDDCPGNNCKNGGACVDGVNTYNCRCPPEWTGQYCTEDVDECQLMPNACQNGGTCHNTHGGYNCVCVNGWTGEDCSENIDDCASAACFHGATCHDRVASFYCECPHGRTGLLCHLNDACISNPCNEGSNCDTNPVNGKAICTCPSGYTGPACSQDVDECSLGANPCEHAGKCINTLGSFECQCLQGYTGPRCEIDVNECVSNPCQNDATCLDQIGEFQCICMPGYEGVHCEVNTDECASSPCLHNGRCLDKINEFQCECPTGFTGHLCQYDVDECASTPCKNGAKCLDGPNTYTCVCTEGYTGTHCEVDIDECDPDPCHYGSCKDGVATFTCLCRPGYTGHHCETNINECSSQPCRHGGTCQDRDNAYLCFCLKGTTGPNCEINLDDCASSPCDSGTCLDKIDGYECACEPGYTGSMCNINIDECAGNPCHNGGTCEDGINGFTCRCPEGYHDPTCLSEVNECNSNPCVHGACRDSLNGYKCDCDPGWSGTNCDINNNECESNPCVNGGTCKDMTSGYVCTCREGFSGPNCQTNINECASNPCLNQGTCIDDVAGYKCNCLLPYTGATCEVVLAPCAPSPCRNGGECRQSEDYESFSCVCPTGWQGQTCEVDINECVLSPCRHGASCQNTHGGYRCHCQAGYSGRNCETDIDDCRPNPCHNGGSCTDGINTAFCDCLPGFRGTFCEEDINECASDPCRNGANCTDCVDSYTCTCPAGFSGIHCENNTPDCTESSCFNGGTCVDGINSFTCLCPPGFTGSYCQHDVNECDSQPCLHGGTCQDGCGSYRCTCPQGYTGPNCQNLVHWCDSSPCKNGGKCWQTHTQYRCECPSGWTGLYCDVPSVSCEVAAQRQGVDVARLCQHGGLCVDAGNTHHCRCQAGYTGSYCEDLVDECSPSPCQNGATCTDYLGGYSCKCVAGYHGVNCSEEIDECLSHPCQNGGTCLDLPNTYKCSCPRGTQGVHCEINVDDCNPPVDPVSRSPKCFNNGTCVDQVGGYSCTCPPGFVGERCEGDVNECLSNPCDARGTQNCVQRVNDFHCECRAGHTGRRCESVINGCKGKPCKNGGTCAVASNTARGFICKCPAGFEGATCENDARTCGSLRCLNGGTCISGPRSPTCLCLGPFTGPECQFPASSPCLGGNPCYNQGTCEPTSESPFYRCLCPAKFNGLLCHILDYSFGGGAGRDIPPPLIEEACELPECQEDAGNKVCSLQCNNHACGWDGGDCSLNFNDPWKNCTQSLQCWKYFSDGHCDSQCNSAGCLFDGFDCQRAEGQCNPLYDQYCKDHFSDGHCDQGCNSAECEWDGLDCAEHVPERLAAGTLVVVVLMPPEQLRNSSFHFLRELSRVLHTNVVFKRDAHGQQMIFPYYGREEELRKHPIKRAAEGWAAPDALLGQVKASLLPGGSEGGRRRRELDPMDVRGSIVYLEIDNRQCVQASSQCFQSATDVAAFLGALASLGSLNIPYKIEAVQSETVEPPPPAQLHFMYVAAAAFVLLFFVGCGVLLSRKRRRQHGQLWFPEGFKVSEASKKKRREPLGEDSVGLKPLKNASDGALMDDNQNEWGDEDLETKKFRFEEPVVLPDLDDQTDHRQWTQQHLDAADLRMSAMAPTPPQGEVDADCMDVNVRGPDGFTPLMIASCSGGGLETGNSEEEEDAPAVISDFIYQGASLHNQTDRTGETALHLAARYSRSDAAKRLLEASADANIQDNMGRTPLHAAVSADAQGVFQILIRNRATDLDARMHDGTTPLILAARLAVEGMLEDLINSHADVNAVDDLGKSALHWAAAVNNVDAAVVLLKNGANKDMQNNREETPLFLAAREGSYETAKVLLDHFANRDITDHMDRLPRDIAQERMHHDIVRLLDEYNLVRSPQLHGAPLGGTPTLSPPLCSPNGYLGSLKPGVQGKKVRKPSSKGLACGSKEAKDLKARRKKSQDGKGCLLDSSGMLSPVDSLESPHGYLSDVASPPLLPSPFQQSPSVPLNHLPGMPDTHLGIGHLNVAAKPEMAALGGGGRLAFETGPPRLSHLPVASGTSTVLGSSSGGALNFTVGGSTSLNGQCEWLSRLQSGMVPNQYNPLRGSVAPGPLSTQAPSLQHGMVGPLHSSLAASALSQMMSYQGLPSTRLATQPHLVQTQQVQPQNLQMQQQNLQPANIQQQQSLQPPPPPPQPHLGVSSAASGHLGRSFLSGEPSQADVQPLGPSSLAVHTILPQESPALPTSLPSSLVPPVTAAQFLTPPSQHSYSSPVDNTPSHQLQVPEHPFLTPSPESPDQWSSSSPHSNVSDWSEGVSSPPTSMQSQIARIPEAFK
Chain of human Notch3 (Q9UM47 40-2321): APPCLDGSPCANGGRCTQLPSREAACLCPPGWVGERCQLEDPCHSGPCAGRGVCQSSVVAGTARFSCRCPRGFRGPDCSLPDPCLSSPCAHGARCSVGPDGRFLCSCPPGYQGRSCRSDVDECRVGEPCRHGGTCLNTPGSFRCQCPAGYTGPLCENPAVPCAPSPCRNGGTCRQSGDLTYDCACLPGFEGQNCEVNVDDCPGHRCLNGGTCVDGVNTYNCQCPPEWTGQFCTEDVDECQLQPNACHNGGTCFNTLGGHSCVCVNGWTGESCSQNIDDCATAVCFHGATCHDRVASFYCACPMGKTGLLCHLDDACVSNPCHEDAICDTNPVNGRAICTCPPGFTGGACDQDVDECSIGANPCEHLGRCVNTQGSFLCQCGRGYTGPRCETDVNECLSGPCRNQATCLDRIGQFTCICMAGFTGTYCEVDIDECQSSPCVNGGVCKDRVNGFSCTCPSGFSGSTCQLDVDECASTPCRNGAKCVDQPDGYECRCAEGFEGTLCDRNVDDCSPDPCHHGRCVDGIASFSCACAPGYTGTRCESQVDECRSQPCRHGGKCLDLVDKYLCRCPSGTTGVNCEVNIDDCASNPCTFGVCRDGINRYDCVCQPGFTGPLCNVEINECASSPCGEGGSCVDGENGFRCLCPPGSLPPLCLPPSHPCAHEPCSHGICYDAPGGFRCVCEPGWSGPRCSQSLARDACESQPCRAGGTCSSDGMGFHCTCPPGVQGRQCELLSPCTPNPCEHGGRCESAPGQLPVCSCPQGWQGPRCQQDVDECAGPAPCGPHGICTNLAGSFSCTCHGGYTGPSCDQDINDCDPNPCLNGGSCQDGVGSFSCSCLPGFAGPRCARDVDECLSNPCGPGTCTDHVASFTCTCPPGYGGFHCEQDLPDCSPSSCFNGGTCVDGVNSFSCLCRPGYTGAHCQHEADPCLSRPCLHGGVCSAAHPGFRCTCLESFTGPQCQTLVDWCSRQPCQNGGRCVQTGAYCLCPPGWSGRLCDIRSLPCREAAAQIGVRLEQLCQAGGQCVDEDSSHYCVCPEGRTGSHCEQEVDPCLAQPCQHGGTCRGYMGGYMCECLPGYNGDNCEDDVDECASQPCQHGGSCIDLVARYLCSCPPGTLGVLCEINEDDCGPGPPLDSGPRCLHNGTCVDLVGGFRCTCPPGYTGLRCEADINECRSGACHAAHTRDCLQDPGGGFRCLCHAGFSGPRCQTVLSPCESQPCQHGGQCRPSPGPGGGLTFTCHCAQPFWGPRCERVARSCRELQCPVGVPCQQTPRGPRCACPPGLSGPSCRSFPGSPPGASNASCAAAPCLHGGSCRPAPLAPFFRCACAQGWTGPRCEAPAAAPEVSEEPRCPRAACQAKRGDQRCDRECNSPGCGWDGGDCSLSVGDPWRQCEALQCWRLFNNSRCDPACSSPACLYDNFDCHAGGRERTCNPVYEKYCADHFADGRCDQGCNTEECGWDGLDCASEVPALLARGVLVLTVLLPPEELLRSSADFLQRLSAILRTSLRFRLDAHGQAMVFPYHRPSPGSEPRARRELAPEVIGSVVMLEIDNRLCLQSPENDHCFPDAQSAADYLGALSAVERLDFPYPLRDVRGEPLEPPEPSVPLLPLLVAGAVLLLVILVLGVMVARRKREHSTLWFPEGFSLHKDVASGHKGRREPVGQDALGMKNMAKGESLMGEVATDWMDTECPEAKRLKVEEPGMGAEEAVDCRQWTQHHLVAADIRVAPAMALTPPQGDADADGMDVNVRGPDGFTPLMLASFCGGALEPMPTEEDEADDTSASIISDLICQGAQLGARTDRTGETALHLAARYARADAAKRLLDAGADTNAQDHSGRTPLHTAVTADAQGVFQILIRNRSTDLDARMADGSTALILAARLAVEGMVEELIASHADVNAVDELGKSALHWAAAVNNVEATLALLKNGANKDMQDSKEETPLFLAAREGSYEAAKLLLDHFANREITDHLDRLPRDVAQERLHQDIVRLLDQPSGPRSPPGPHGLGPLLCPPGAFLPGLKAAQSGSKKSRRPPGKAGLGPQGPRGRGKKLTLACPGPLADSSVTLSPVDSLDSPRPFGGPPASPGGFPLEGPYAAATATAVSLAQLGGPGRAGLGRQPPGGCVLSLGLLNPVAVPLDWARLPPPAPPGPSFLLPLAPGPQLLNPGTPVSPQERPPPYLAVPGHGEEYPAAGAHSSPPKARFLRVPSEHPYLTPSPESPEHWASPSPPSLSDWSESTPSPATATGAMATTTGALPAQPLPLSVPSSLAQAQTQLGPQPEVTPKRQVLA
Chain of Notch3 (E403Q) (Q9UM47 40-2321 E403Q): as the sequence (Q9UM47 40-2321) above, with E364Q counted along it
T2 sequence (P46531 19-2555): as the sequence (P46531 19-2555) above
T3 sequence (P46531 19-2555 E424Q): as the sequence (P46531 19-2555) above, with E406Q counted along it

Take `C[C@H](NC(=O)Cc1cc(F)cc(F)c1)C(=O)N[C@@H]1C(=O)N(C)c2ccccc2-c2ccccc21` [DBZ, reference compound]: in test [1], the “formation of Notch ICD in response to DLL4” value is “prevented formation of Notch ICD; also recorded: blocked this signaling event”.

B1: 90R21: affinity matured anti-Notch1 ligand binding domain antibody; heavy chain SEQ ID NO: 1, light chain SEQ ID NO: 5; ATCC PTA-8909 (antibody)
heavy: MKHLWFFLLLVAAPRWVLSEVQLLESGGGLVQPGGSLRLSCAASGFTFSNYGMSWVRQAPGKGLEWVSSISGYGSNTYYADSVKGRFTISRDNSKNTLYLQMNSLRAEDTAVYYCARISQQAVWGQGTLVTVSSASTKGPSVFPLAPCSRSTSESTAALGCLVKDYFPEPVTVSWNSGALTSGVHTFPAVLQSSGLYSLSSVVTVPSSNFGTQTYTCNVDHKPSNTKVDKTVERKCCVECPPCPAPPVAGPSVFLFPPKPKDTLMISRTPEVTCVVVDVSHEDPEVQFNWYVDGVEVHNAKTKPREEQFNSTFRVVSVLTVVHQDWLNGKEYKCKVSNKGLPAPIEKTISKTKGQPREPQVYTLPPSREEMTKNQVSLTCLVKGFYPSDIAVEWESNGQPENNYKTTPPMLDSDGSFFLYSKLTVDKSRWQQGNVFSCSVMHEALHNHYTQKSLSLSPGK
light: MAWALLLLTLLTQGTGSWAQSALTQPASVSGSPGQSITISCTGTSSDIGGYQYVSWYQQHPGKAPKLMIYYVSNRPSGVSNRFSGSKSGNTASLTISGLQAEDEADYYCQSADSSSWVFGGGTKLTVLGQPKAAPSVTLFPPSSEELQANKATLVCLISDFYPGAVTVAWKADSSPVKAGVETTTPSKQSNNKYAASSYLSLTPEQWKSHRSYSCQVTHEGSTVEKTVAPTECS
modifications: Synthetic 90R21 Heavy chain; Synthetic 90R21 Light chain
Turning to B1, the “tumor growth, PE13, combination” value in the test on PE13 breast tumor cells (setting [3]) is “virtually eliminated tumor growth”. Also, the “tumor growth, PE13” value with PE13 breast tumor cells (setting [4]) was “significantly reduced tumor growth; also recorded: reduced tumor growth significantly”. Moreover, the “formation of Notch ICD in response to DLL4” value in test [1] is recorded as “prevented formation of Notch ICD; also recorded: inhibited ICD formation”. Moreover, the “tumor growth, T3, combination” value with T3 breast tumor cells (setting [3]) is given as “virtually eliminated T3 tumor growth”. In addition, the “tumor growth, T3” value with T3 breast tumor cells (setting [4]) was “significantly reduced tumor growth; also recorded: reduced tumor growth significantly”. In addition, the “blocking of binding between DLL4 and Notch1” value with human Notch1 was “blocked the binding; also recorded: disrupted ligand binding”.

B2: 122R5: lead anti-Notch3 fAb; heavy chain SEQ ID NO: 9, light chain SEQ ID NO: 13; ATCC PTA-8908 (antibody)
heavy: MKHLWFFLLLVAAPRWVLSQVQLVESGGGLVQPGGSLRLSCAASGFTFSDNAIHWVRQAPGKGLEWVSAISSYGSGTYYADSVKGRFTISRDNSKNTLYLQMNSLRAEDTAVYYCARPGFQFSFTFMDIWGQGTLVTVSSASTKGPSVFPLAPCSRSTSESTAALGCLVKDYFPEPVTVSWNSGALTSGVHTFPAVLQSSGLYSLSSVVTVPSSNFGTQTYTCNVDHKPSNTKVDKTVERKCCVECPPCPAPPVAGPSVFLFPPKPKDTLMISRTPEVTCVVVDVSHEDPEVQFNWYVDGVEVHNAKTKPREEQFNSTFRVVSVLTVVHQDWLNGKEYKCKVSNKGLPAPIEKTISKTKGQPREPQVYTLPPSREEMTKNQVSLTCLVKGFYPSDIAVEWESNGQPENNYKTTPPMLDSDGSFFLYSKLTVDKSRWQQGNVFSCSVMHEALHNHYTQKSLSLSPGK
light: MAWALLLLTLLTQGTGSWADIELTQPPSVSVAPGQTARISCSGDALGSKYASWYQQKPGQAPVLVIYDDKNRPSGIPERFSGSNSGNTATLTISGTQAEDEADYYCQSWDGKSKVVFGGGTKLTVLGQPKAAPSVTLFPPSSEELQANKATLVCLISDFYPGAVTVAWKADSSPVKAGVETTTPSKQSNNKYAASSYLSLTPEQWKSHRSYSCQVTHEGSTVEKTVAPTECS
modifications: Synthetic 122R5 Heavy chain; Synthetic 122R5 Light chain
As to B2, in [2], the “binding to cells expressing wild type Notch1” value is reported as “ability to bind to Notch1”. The “binding to murine Notch3” value with murine Notch3 is reported as “bound”. Further, the “binding to cells expressing Notch1 E424Q” value with Notch1 E424Q is reported as “not to Notch1(E424Q)”. Further, the “binding to human Notch3” value with human Notch3 was “bound”. Moreover, in the test with Notch3 (E403Q), the “binding to Notch3 (E403Q)” value is recorded as “not Notch3 (E403Q)”.
